# Source: paper PMC314469, “Protein Interaction Networks by Proteome Peptide Scanning” (PLoS Biology, 2004)
# T1: Boi1 SH3 (BOI1_YEAST), P38041
# T1 chain: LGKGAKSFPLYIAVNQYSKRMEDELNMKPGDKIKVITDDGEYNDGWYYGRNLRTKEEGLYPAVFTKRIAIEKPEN
# T2: Boi2 SH3 (BOI2_YEAST), P39969
# T2 chain: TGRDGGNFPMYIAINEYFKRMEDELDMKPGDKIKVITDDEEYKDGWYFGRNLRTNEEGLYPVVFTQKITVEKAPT
# T3: Myo5 SH3 (MYO5_YEAST), Q04439
# T3 chain: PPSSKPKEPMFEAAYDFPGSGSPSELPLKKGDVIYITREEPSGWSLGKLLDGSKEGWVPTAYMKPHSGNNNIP
# T4: Rvs167 SH3 (RV167_YEAST), P39743
# T4 chain: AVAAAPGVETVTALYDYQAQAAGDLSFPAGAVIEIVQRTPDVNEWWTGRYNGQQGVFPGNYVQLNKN
# T5: Yfr024 SH3 (LSB3_YEAST), P43603
# T5 chain: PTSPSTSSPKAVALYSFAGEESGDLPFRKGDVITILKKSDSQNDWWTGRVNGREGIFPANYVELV
# T6: Yhr016c SH3 (YSC84_YEAST), P32793
# T6 chain: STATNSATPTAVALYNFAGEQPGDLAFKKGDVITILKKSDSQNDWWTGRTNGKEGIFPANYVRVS
# Legend:
# Experiment in all cases: SPOT array
# [1] = target: T1, Boi1 SH3 (BOI1_YEAST), P38041
# [2] = target: T2, Boi2 SH3 (BOI2_YEAST), P39969
# [3] = target: T3, Myo5 SH3 (MYO5_YEAST), Q04439
# [4] = target: T4, Rvs167 SH3 (RV167_YEAST), P39743
# [5] = target: Sho1 SH3 (SHO1_YEAST), P40073
# [6] = target: T5, Yfr024 SH3 (LSB3_YEAST), P43603
# [7] = target: T6, Yhr016c SH3 (YSC84_YEAST), P32793
# Chain of Sho1 SH3 (SHO1_YEAST), P40073 (P40073 295-366): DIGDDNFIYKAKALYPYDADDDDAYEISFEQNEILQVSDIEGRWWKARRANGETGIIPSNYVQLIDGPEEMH
Binder,"normalised SPOT signal, Boehringer light units (BLU); mean over the file's lines of this peptide [1]","normalised SPOT signal, Boehringer light units (BLU); mean over the file's lines of this peptide [2]","normalised SPOT signal, Boehringer light units (BLU); mean over the file's lines of this peptide [3]","normalised SPOT signal, Boehringer light units (BLU); mean over the file's lines of this peptide [4]","normalised SPOT signal, Boehringer light units (BLU); mean over the file's lines of this peptide [5]","normalised SPOT signal, Boehringer light units (BLU); mean over the file's lines of this peptide [6]","normalised SPOT signal, Boehringer light units (BLU); mean over the file's lines of this peptide [7]"
DEALRYSPDAPIVL [YNL090W 103-116],37.1,16.1,127,32.9,49.5,50.8,22.9
DEFNRNTPPQPSLL [YPL084W 526-539],73.9,33.7,118,14.4,14.3,73.4,25.1
DENSKWQPSDPFTM [YOL157C 233-246],91.8,27,285,30.2,27.7,12.9,10
DEPIRYAPGDPIEK [YNL132W 471-484],57.2,1,106,26.2,54.9,0.5,9.2
DETRKLTPSSPGDD [YPR173C 368-381],0,16.6,231,52.7,33.5,62.3,19.2
DFIGRKSPDLPEYL [YLL006W 228-241],137,41.4,139,162,17.3,59.3,37.2
DFRGRAYPLSPHFN [YFL036W 825-838],5020,1390,785,1830,975,1600,257
DGKLKHIPRRPYEI [YEL007W 26-39],1850,3.5,307,68.6,48.8,315,48.7
DIGSKKLPTGPSKK [YER164W 1276-1289],3940,34.4,220,38.1,608,50,12.3
DIKTRSVPKIPSIE [YBR163W 320-333],344,23.2,102,52200,31.3,48300,36000
DILKKESPDVPLFD [YBR155W 341-354],170,17.3,146,0,26.9,0,18.3
DIPLKQVPENPMPT [YIL155C 374-387],110,12.3,62.9,26,15,13.5,4.6
DIPRRYIPITPADL [YMR126C 79-92],14100,52.6,33,956,33.7,748,116
DKFIKLIPMRPVLI [YDR479C 286-299],117,0.3,253,39,112,1380,95.2
DKIFKTDPNEPAND [YDL174C 572-585],66.5,26.3,99.1,47.5,16.7,0,14.1
DKKKKKYPRKPKKN [YDR485C 332-345],223,0,532,66.5,114,245,15.7
